# According to patent US20170165365A1 (SYMPHOGEN A S, published 2017):
# T1: human HER4 antigen (human, UniProt Q15303 26-649, limits assumed)
# T1 construct: Antigen coated for ELISA
# T1 sequence (looked up): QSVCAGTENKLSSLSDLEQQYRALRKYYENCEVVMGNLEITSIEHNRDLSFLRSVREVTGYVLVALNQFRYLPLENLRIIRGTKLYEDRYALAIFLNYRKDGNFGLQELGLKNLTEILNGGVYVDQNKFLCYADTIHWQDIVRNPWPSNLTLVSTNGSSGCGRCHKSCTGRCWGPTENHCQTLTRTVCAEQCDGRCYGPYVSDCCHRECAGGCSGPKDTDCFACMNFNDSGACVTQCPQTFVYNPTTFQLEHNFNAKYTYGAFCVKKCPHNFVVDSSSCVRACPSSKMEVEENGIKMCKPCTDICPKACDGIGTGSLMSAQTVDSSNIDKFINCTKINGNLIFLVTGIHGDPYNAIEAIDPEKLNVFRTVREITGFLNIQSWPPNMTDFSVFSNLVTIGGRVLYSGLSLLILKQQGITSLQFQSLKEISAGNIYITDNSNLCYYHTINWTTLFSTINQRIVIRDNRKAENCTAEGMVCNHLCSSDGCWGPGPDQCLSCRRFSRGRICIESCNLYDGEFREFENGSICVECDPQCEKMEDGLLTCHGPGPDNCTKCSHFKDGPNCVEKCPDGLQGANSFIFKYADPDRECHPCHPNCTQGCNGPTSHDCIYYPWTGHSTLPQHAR
# T2: murine HER4 antigen (mouse, UniProt Q61527 26-652, limits assumed)
# T2 construct: In-house antigen coated for ELISA; also called mouse HER4
# T2 sequence (looked up): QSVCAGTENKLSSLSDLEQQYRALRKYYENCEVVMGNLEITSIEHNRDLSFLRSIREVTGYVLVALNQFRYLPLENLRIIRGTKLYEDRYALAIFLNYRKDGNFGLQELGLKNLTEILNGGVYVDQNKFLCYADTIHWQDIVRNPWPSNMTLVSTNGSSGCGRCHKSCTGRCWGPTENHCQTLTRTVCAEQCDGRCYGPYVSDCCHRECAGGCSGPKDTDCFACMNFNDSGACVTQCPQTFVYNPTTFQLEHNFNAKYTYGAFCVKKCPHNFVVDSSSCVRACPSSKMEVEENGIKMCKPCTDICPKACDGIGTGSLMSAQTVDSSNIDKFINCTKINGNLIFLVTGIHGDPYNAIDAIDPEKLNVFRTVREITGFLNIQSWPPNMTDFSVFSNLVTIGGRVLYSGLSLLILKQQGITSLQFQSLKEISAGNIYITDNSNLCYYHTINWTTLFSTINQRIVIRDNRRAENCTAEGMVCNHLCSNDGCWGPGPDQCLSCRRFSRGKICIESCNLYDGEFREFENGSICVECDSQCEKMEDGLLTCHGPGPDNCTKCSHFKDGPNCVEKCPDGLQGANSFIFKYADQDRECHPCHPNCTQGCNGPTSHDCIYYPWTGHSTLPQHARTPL
# Assays:
# [1] = target: cynomolgus HER2 antigen (cynomolgus monkey); assay: SPR (ProteOn XPR36), IgG captured by anti-human Fc, soluble monovalent antigen, 1:1 fit
# [2] = target: T3, cynomolgus EGFR antigen (cynomolgus monkey, UniProt A0A2K5WK39 25-645); assay: ELISA on coated antigen
# T3 construct: In-house antigen; also called cynomolgus antigen
# Protocol: (§1) Antibody-antigen binding was measured by ELISA with coated antigens. Human antigens were obtained from Sino Biologicals. All other antigens were produced in-house by transient expression in CHO or HEK293 cells. Chimeric and humanized antibodies, as well as an isotype control antibody, were incubated with the coated antigens at different concentrations. After wash, bound antibodies were detected by HRP-(horse radish peroxidase)-conjugated secondary antibodies.
# [3] = target: T1, human HER4 antigen; assay: ELISA on coated antigen
# Protocol: as §1
# [4] = target: T4, human HER3 antigen (Sino Biologicals) (human, UniProt P21860 20-643); assay: ELISA on coated antigen
# T4 construct: Bought soluble antigen; also called human antigen
# Protocol: as §1
# [5] = target: T5, mouse HER2 antigen (mouse, UniProt P70424 23-653, limits assumed); assay: ELISA on coated antigen
# T5 construct: In-house antigen coated for ELISA; also called mouse antigen; murine HER2
# Protocol: as §1
# [6] = target: T6, cynomolgus HER3 antigen (cynomolgus monkey, UniProt G7PIG5 20-643); assay: ELISA on coated antigen
# T6 construct: In-house antigen; also called cynomolgus antigen
# Protocol: as §1
# [7] = target: T2, murine HER4 antigen; assay: ELISA on coated antigen
# Protocol: as §1
# [8] = target: T7, mouse HER3 antigen (mouse, UniProt Q61526 20-641, limits assumed); assay: ELISA on coated antigen
# T7 construct: In-house antigen coated for ELISA; also called mouse antigen; murine HER3
# Protocol: as §1
# [9] = target: T8, human EGFR antigen (Sino Biologicals) (human, UniProt P00533 25-645); assay: ELISA on coated antigen
# T8 construct: Bought soluble antigen; also called human antigen
# Protocol: as §1
# [10] = target: T9, mouse EGFR antigen (mouse, UniProt Q01279 25-647, limits assumed); assay: ELISA on coated antigen
# T9 construct: In-house antigen coated for ELISA; also called mouse antigen; murine EGFR
# Protocol: as §1
# T6 sequence (G7PIG5 entry or part of it): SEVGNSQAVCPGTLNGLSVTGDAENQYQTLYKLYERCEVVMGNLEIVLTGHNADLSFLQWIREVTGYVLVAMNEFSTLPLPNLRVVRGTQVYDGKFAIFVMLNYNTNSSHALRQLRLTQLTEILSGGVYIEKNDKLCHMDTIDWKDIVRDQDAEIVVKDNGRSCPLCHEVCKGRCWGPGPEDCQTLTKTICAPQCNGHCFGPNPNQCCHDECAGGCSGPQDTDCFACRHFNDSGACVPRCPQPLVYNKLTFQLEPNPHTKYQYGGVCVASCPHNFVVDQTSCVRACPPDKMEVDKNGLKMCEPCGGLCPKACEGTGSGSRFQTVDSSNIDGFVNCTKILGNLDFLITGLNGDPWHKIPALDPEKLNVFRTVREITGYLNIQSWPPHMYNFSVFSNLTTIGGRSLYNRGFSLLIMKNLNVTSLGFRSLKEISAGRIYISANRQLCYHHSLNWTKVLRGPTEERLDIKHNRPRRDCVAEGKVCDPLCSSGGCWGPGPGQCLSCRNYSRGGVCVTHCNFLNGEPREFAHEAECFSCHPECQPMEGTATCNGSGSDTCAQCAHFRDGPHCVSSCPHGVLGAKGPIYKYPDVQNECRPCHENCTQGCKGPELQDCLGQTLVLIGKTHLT
# T7 sequence (Q61526 20-641 limits assumed): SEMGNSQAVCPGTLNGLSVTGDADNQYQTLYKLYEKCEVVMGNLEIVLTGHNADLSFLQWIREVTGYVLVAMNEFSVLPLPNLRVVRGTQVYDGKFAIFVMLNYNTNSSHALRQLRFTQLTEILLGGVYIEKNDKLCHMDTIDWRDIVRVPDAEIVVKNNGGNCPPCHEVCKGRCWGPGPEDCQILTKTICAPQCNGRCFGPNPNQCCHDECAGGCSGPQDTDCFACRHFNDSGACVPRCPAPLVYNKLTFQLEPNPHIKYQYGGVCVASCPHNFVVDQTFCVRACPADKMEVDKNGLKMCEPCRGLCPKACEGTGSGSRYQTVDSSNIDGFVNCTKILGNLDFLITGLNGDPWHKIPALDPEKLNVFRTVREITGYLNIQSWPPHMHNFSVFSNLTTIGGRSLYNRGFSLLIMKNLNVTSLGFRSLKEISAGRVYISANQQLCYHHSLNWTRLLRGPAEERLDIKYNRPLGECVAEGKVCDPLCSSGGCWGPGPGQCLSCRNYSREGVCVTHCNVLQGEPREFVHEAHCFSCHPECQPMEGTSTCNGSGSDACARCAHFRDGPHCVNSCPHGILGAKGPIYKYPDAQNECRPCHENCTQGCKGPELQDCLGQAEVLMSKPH
# T5 sequence (P70424 23-653 limits assumed): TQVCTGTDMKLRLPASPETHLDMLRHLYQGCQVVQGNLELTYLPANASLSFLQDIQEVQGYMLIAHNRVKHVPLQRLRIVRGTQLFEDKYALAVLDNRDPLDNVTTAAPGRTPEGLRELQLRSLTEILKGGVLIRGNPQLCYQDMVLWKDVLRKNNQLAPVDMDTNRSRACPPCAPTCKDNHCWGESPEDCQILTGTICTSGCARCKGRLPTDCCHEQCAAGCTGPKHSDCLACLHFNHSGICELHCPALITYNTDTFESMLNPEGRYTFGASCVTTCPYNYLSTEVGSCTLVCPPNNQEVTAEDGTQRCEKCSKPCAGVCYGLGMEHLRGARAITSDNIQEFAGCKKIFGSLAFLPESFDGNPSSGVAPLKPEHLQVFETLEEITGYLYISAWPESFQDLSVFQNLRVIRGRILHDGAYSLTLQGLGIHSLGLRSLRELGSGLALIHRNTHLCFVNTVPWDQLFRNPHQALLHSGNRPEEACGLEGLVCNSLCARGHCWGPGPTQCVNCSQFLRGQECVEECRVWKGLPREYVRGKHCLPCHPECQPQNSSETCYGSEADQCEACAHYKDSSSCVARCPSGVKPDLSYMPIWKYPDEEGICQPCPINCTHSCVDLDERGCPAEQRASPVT
binder,measurement,setting,value
"humanized anti-HER2 antibody 11249 (antibody, V domains shown) VH: QVQLVQSGAEVKKPGASVKVSCKASGYTFTSHWMHWVRQAPGQGLEWMGNINPSSGGTNYNEKFKSRVTMTVDTSTSTVYMELSSLRSEDTAVYYCARAYYDFSWFVYWGQGTLVTVSS VL: DIQMTQSPSSLSASVGDRVTITCRSSQDISNYLNWYQQKPGKAPKLLMYISRLHSGVPSRFSGSGSGTDYTFTISSLQPEDIATYYCQQGNTLPLTFGGGTKVEIK",Kd,[1],2.5 nM
same,koff,[1],0.00038 s⁻¹
same,kon,[1],150000 M⁻¹ s⁻¹
same,binding result,[2],no binding (tested: 40 nM antibody (negative: OD<0.1))
same,binding result,[3],no binding (tested: 40 nM antibody (negative: OD<0.1))
same,binding result,[4],no binding (tested: 40 nM antibody (negative: OD<0.1))
same,binding result,[5],no binding (tested: 40 nM antibody (negative: OD<0.1))
same,binding result,[6],no binding (tested: 40 nM antibody (negative: OD<0.1))
same,binding result,[7],no binding (tested: 40 nM antibody (negative: OD<0.1))
same,binding result,[8],no binding (tested: 40 nM antibody (negative: OD<0.1))
same,binding result,[9],no binding (tested: 40 nM antibody (negative: OD<0.1))
same,binding result,[10],no binding (tested: 40 nM antibody (negative: OD<0.1))
